This experiment addresses Telomeric repeat binding factor 2 (TRF2), endogenous (human (endogenous in C1, UTC8505, RD and HEK293T cells)). As to the kind of experiment: proximity ligation; Duolink PLA in fixed, permeabilised C1 cells with antibodies to HMGA2 (D1A7), TRF2 and RAP1; a minimum of 30 nuclei quantified.

B1: High Mobility Group AT-hook protein 2 (HMGA2), endogenous (natural protein)
chain: MSARGEGAGQPSTSAQGQPAAPAPQKRGRGRPRKQQQEPTGEPSPKRPRGRPKGSKNKSPSKAAQKKAEATGEKRPRGRPRKWPQQVVQKKPAQEETEETSSQESAEED
As to B1, the PLA foci per nucleus (PLA foci per nucleus) came to 5.

Source of the values: paper PMC4914320.
